Results from doi:10.1101/2024.11.11.622897.

Target: T1, DdaA (A. baumannii), AbDdaA (Acinetobacter baumannii ATCC 17978, UniProt V5VBS3 1-335)
T1 sequence: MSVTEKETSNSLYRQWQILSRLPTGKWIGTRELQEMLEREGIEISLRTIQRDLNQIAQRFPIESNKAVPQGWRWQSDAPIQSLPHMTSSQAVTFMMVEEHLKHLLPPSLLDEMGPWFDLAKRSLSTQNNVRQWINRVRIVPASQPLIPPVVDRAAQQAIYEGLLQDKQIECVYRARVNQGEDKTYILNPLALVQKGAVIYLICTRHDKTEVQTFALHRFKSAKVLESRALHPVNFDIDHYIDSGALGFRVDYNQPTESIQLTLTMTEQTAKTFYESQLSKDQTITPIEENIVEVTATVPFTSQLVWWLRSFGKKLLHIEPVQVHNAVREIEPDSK
Experiment: EMSA

B1: recA promoter motif WT (AR-DDRM) (dsDNA)
DNA 1: TTTCCGGTCTGGGCGACACAATATGACGTGTAATTTTAACC
DNA 2: GGTTAAAATTACACGTCATATTGTGTCGCCCAGACCGGAAA
binding result: binds
